In the DeepSol protein solubility set:

Experiment: soluble on expression in E. coli; label from the status in PepcDB or PDB records

Row | Sequence | soluble on expression in E. coli
1 | MALPLPDPSEQAYSDTLKTMLHERIAHSGGWISFADYMETVLYTPETGYYSGGAAKFGTAGDFVTAPEISPLFGQALARQIAPILSAVNQGSILEFGAGSGKLAVDLLCALEELNNLPQHYYILDLSADLQQRQRAMIEQHIPHLASRVSWLSALPEQFEGLILANEVLDAMPVHLVAWQNGNIAERGVIWKDQGPVWQDQPLAAGELLDVARQLPPADQFSYPLYISEISLTNRHFICSLAMLLQRGAILLVDYGFGQNEYYHPQRHQGTLMCHYRHHAHDDPFFLPGLQDITSHVDFSTIARTALDSGLQLAGYTTQAHFLINCGITDLLARTPADQPGSYLPLVSQVQRLVSPAEMGELFKVMVLSRDIDIDAASCGFTRGDLRRLLLEHHHHHH | not soluble
2 | MALRSVCRWHNGEPAVLSSYGLRVRLSRMEDQCRVLAAAVETLDDVFYVYDADGKLAYWNARLNELFGLTDGELSGMDPTEFFVADDRAAVEAAIEDVFESGQTSVEARAETTEGVVTFELSGRLLTGDDGTVQGFSGVGRDIT | not soluble
3 | MALSLYEKMLHKGMIIKNSNVYEKIKEIDTIIFDKTGTLTYGTPIVTQFIGDSLSLAYAASVEALSSHPIAKAIVKYAKEQGVKILEVKDFKEISGIGVRGKISDKIIEVKKAENNNDIAVYINGEPIASFNISDVPRPNLKDYLEKLKNEGLKIIILSGDKEDKVKELSKELNIQEYYSNLSPEDKVRIIEKLKQNGNKVLMIGDGVNDAAALALADVSVAMGNGVDISKNVADIILVSNDIGTLLGLIKNRKRLSNAIPSN | soluble
4 | MALSTLNREVIKKNLQNEEYDVVIIGGGITGAGIALDASQRGMKVALVEMQDFAQGTSSRSTKLVHGGLRYLKQAQIKVVAETGKERAIVYENGPHVTTPEWMLLPMHKGGTFGKFTTNLGLTAYDRLAGVKKYERKKMLSKKQTLNKEPLVKKDGLKGGGYYVEYRTDDARLTIEVMKRAEENGAEILNHTKSTDFIYDSKSKVRGIEVQDLLTGEMYEINAKKVINAAGPWVDEVRKKDYTRNNKQLRLTKGVHVVIDQSKFPLRQAVYFDTEKDGRMIFAIPREGKAYVGTTDTFYDNDKTKPLTTQEDRDYLIDAINYMFPDVNVKDEDIESTWAGVRPLILEDGKDPSEISRKDEIWEGKSGLLTIAGGKLTGYRHMALEIVDLLAKRLKQEYKLTFAECKTKHTPISGGDVGGSANFESFVERKVEEGKAIGLQADVAKRLASKYGSNVDKLYNIAQIAQDKDLKLPLELYVELVYSVQNEMVFKPTDFLIRRSGKLYFNINEVKQYKDAVVEELAKLLNYTQSQQNEFTKEINIAIEEATRGNEQLAVLKLEHHHHHH | soluble
5 | MALTLAKNQTISLEKTAGTGLKKVSMGLGWDPEKASGFFGKLLGGGGGDIDLDASCIMLDADKKPLDLVWFRQLQSRDGAILHSGDNRTGEGAGDDETISVDLEKLPATVKYLVFTVNSFTGQNFEKVANAYCRIVDLGTRNELGRFDLSEKGQHTGVVMSYLSRTPSGWDFTAVGQATNGRTADDLVELAIGAVRA | not soluble
6 | MAMSKVKSITRESWILSTFPEWGSWLNEEIEQEQVAPGTFAMWWLGCTGIWLKSEGGTNVCVDFWCGTGKQSHGNPLMKQGHQMQRMAGVKKLQPNLRTTPFVLDPFAIRQIDAVLATHDHNDHIDVNVAAAVMQNCADDVPFIGPKTCVDLWIGWGVPKERCIVVKPGDVVKVKDIEIHALDAFDRTALITLPADQKAAGVLPDGMDDRAVNYLFKTPGGSLYHSGDSHYSNYYAKHGNEHQIDVALGSYGENPRGITDKMTSADMLRMGEALNAKVVIPFHHDIWSNFQADPQEIRVLWEIKKDRLKYGFKPFIWQVGGKFTWPLDKDNFEYHYPRGFDDCFTIEPDLPFKSFL | not soluble
7 | MAMTKNTRFSPEVRQRAVRMVLESQGEYDSQWATICSIAPKIGCTPETLRVWGLRQHERDTGGGDGGLTTAERQRLKEPERENRELRRSNDILRQASAYFAKAEFDRLWKKLEHHHHHH | soluble
8 | MAMTLVRRDARPMELTPFRTWSPFTLVDEVNRLFEEAFSDLVRPAAAYVAPADLYETDEALILEMAVPGMTPEDLEVSLEGNKLTIRGQVKPVADERVRRYYLQEMAHGSFVRTFTLPVEVDASGVKAEFRNGILRLTLPKVAEARARRIPIEVVQ | soluble
